From patent US20170015742A1 (published 2017) come the findings set out here.

The target of one assay is T1, VEGF-A (human, UniProt P15692 207-395).
T1 construct: also called hVEGF165
The assay is described as follows: Biacore SPR; DVD-Ig captured on anti-human Fc, antigen injected. Summed up: (§1)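 Antibodies or DVD-Ig molecules (1 μg/ml) were captured on an anti-human Fc CM5 surface, with antigen injected in solution and responses referenced to the capture-only surface. Rate constants came from a global 1:1 Langmuir fit, and KD = koff/kon.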

The target in the next assay is T2, PDGF-BB (human, UniProt P01127 82-190, limits assumed).
T2 construct: also called human PDGF-BB; hPDGF-BB
T2 sequence (P01127 82-190 limits assumed): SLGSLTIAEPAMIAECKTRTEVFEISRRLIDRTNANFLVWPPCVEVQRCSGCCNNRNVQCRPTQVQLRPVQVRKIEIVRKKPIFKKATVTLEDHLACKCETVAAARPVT
The description is as above. The essentials:
as §1

T1 sequence (P15692 other isoform, or with tags, fused parts or gaps limits assumed): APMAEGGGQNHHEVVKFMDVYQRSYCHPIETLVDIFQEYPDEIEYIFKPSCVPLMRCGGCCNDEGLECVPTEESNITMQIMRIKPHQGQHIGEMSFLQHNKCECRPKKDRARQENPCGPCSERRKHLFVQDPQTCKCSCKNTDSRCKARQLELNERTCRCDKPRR

B1: 4G8.5_GS_CL-33675 (PR-1611291) (bispecific antibody, human IgG1, kappa, L234A L235A)
heavy: EIQLVQSGSELKKPGASVKVSCKASGYTFTNYGMYWVRQAPGQGLEYMGWINTETGKPTYADDFKGRFVFSLDTSVSTAYLQISSLKAEDTAVYFCARTNYYYRSYIFYFDYWGQGTMVTVSSGGGGSGGGGSEVTLRESGPALVKPTQTLTLTCTFSGFSLSTYGMGVGWIRQPPGKALEWLANIWWDDDKYYNPSLKNRLTISKDTSKNQVVLTMTNMDPVDTATYYCARIESSGPKYSFDYWGQGTMVTVSSASTKGPSVFPLAPSSKSTSGGTAALGCLVKDYFPEPVTVSWNSGALTSGVHTFPAVLQSSGLYSLSSVVTVPSSSLGTQTYICNVNHKPSNTKVDKKVEPKSCDKTHTCPPCPAPEAAGGPSVFLFPPKPKDTLMISRTPEVTCVVVDVSHEDPEVKFNWYVDGVEVHNAKTKPREEQYNSTYRVVSVLTVLHQDWLNGKEYKCKVSNKALPAPIEKTISKAKGQPREPQVYTLPPSREEMTKNQVSLTCLVKGFYPSDIAVEWESNGQPENNYKTTPPVLDSDGSFFLYSKLTVDKSRWQQGNVFSCSVMHEALHNAYTQKSLSLSPGK
light: ATQLTQSPSLSASVGDRVTITCRASESVSTHMHWYQQKPGKQPKLLIYGASNLESGVPSRFSGSGSGTDFTLTISSLQPEDFATYFCQQSWNDPFTFGQGTKLEIKGGSGGGGSGGEIVLTQSPGTLSLSPGERATLSCRASSGSIWYSFVSWYQQKPGQAPRLLIYADDQRASGIPDRFSGSGSGTDFTLTISRLEPEDFAVYYCQSYGINIDVVFGGGTKVEIKRTVAAPSVFIFPPSDEQLKSGTASVVCLLNNFYPREAKVQWKVDNALQSGNSQESVTEQDSKDSTYSLSSTLTLSKADYEKHKVYACEVTHQGLSSPVTKSFNRGEC
notes: DVD-Ig: outer hBDB-4G8.5 (VEGF), inner CL-33675 (PDGF), linkers GS-H10/GS-L10(dR); Human IgG1 L234A, L235A, H435A with kappa
As for B1, in the assay with VEGF-A, the dissociation constant Kd turned out to be 6.6 pM and the kon came out at 4.7e+06 M⁻¹ s⁻¹. Besides, in the assay with PDGF-BB, the dissociation constant (Kd) worked out at 0.74 pM and the kon worked out at 1.6e+07 M⁻¹ s⁻¹.

B2: 4G8.5_GS_9E8.4 (PR-1612489) (bispecific antibody, human IgG1, kappa, L234A L235A)
heavy: EIQLVQSGSELKKPGASVKVSCKASGYTFTNYGMYWVRQAPGQGLEYMGWINTETGKPTYADDFKGRFVFSLDTSVSTAYLQISSLKAEDTAVYFCARTNYYYRSYIFYFDYWGQGTMVTVSSGGGGSGGGGSEVTLRESGPALVKPTQTLTLTCTFSGFSLSTYGMGVGWIRQPPGKALEWLANIWWDDDKYYNPSLKNRLTISKDTSKNQVVLTMTNMDPVDTATYYCARIESIGTTYSFDYWGQGTMVTVSSASTKGPSVFPLAPSSKSTSGGTAALGCLVKDYFPEPVTVSWNSGALTSGVHTFPAVLQSSGLYSLSSVVTVPSSSLGTQTYICNVNHKPSNTKVDKKVEPKSCDKTHTCPPCPAPEAAGGPSVFLFPPKPKDTLMISRTPEVTCVVVDVSHEDPEVKFNWYVDGVEVHNAKTKPREEQYNSTYRVVSVLTVLHQDWLNGKEYKCKVSNKALPAPIEKTISKAKGQPREPQVYTLPPSREEMTKNQVSLTCLVKGFYPSDIAVEWESNGQPENNYKTTPPVLDSDGSFFLYSKLTVDKSRWQQGNVFSCSVMHEALHNAYTQKSLSLSPGK
light: ATQLTQSPSLSASVGDRVTITCRASESVSTHMHWYQQKPGKQPKLLIYGASNLESGVPSRFSGSGSGTDFTLTISSLQPEDFATYFCQQSWNDPFTFGQGTKLEIKGGSGGGGSGGEFVLTQSPGTLSLSPGERATLSCERSSGDIGDSYVSWYQQKPGQAPRLVIYADDQRPSGIPDRFSGSGSGTDFTLTISRLEPEDFAVYYCQSYDINIDIVFGGGTKVEIKRTVAAPSVFIFPPSDEQLKSGTASVVCLLNNFYPREAKVQWKVDNALQSGNSQESVTEQDSKDSTYSLSSTLTLSKADYEKHKVYACEVTHQGLSSPVTKSFNRGEC
notes: DVD-Ig: outer hBDB-4G8.5 (VEGF), inner hBDI-9E8.4 (PDGF), linkers GS-H10/GS-L10(dR); Human IgG1 L234A, L235A, H435A with kappa
With B2, in the assay with VEGF-A, binding was characterised by a dissociation constant (Kd) of 8.5 pM and the kon amounted to 5.4e+06 M⁻¹ s⁻¹. Also, in the assay with PDGF-BB, the affinity, expressed as Kd, was 28 pM and the kon was 5.8e+06 M⁻¹ s⁻¹.
